Experimental data reported in the supplement of paper PMC7125110.
± gives the standard error. Variants at the floor of the assay were thinned out.

B1: glmS ribozyme (parent)
chain: AUAAAAGCGCCAGAACUACAGAAAUGUAGUUGACGAGGAGGAGGUUUAUCGAAUUUUCGGCGGAUGCCUCCAAA

What was measured:
Settings in all cases: with glucosamine-6-phosphate
glucosamine-6-phosphate [1] = variants of: B1; experiment: self-cleavage kobs at 40 uM GlcN6P; higher = faster cleavage; RNA array
How it was run: (§1)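 Glucosamine-6-phosphate in HEPES/KCl/Mg(OAc)2 buffer, at 40 μM to 10 mM, was flowed over barcoded ribozyme variants transcribed in situ by E. coli RNA polymerase on sequenced MiSeq chips. Tracking was through a hybridised Cy3 probe at 37 °C. kobs, kcat and KM came from exponential decay fits and weighted Michaelis–Menten fits of normalised per-tile medians.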

glucosamine-6-phosphate [2] = variants of: B1; experiment: self-cleavage kobs at 640 uM GlcN6P; higher = faster cleavage; RNA array
How it was run: as §1

glucosamine-6-phosphate [3] = variants of: B1; experiment: self-cleavage kobs at 2500 uM GlcN6P; higher = faster cleavage; RNA array
How it was run: as §1

glucosamine-6-phosphate [4] = variants of: B1; experiment: self-cleavage kobs at 10000 uM GlcN6P; higher = faster cleavage; RNA array
How it was run: as §1

glucosamine-6-phosphate [5] = variants of: B1; experiment: self-cleavage kobs at 160 uM GlcN6P; higher = faster cleavage; RNA array
How it was run: as §1

Variant	self-cleavage kobs at 40 uM GlcN6P (glucosamine-6-phosphate [1])	self-cleavage kobs at 640 uM GlcN6P (glucosamine-6-phosphate [2])	self-cleavage kobs at 2500 uM GlcN6P (glucosamine-6-phosphate [3])	self-cleavage kobs at 10000 uM GlcN6P (glucosamine-6-phosphate [4])	self-cleavage kobs at 160 uM GlcN6P (glucosamine-6-phosphate [5])
C10G G59C	< 1e-05 s⁻¹	< 1e-05 s⁻¹	–	–	–
C16G G44U U65A	< 1e-05 s⁻¹	–	< 1e-05 s⁻¹	–	–
A52G U56C	< 1e-05 s⁻¹	4.15e-05 ± 1.2e-05 s⁻¹	7.09e-05 ± 1.3e-05 s⁻¹	0.000259 ± 4.9e-05 s⁻¹	–
G38U G41A U69G	< 1e-05 s⁻¹	< 1e-05 s⁻¹	< 1e-05 s⁻¹	–	< 1e-05 s⁻¹
A52C C61U	< 1e-05 s⁻¹	< 1e-05 s⁻¹	< 1e-05 s⁻¹	< 1e-05 s⁻¹	–
C10U C68A C71U	< 1e-05 s⁻¹	–	–	–	–
G13A G35C G41U A53C U54A	< 1e-05 s⁻¹	–	–	–	–
A39C G44C U65C	< 1e-05 s⁻¹	–	–	–	–
G29C U47G C68G	7.83e-05 ± 2.3e-05 s⁻¹	–	–	3.71e-05 ± 1.3e-05 s⁻¹	–
G32C G40C	< 1e-05 s⁻¹	< 1e-05 s⁻¹	–	–	< 1e-05 s⁻¹
A12C U56A A64C	< 1e-05 s⁻¹	9.73e-05 ± 3.4e-05 s⁻¹	–	–	–
A6U A12U U65G	< 1e-05 s⁻¹	–	–	–	–
A64C G66C	< 1e-05 s⁻¹	< 1e-05 s⁻¹	–	–	< 1e-05 s⁻¹
C11A G32U A42G	< 1e-05 s⁻¹	–	–	–	–
U54A C71G	0.000131 ± 2.1e-05 s⁻¹	0.000507 ± 0.00011 s⁻¹	0.000368 ± 0.00016 s⁻¹	0.00197 ± 0.00046 s⁻¹	0.000336 ± 0.00012 s⁻¹
C8G A12U A33U G60C	< 1e-05 s⁻¹	–	–	< 1e-05 s⁻¹	–
C8U U31G	< 1e-05 s⁻¹	< 1e-05 s⁻¹	< 1e-05 s⁻¹	< 1e-05 s⁻¹	< 1e-05 s⁻¹
C8A U49G	< 1e-05 s⁻¹	< 1e-05 s⁻¹	< 1e-05 s⁻¹	< 1e-05 s⁻¹	< 1e-05 s⁻¹
U49G U54G	3.67e-05 ± 1.4e-05 s⁻¹	–	–	0.000838 ± 0.00014 s⁻¹	–
C8A A33U C34A U56A	< 1e-05 s⁻¹	–	–	–	–
G44C U45A C71U	< 1e-05 s⁻¹	–	–	–	–
C11A G44C	< 1e-05 s⁻¹	< 1e-05 s⁻¹	< 1e-05 s⁻¹	–	< 1e-05 s⁻¹
G38C A48U	< 1e-05 s⁻¹	–	–	< 1e-05 s⁻¹	–
A42U G44U	< 1e-05 s⁻¹	< 1e-05 s⁻¹	< 1e-05 s⁻¹	–	< 1e-05 s⁻¹

Variant	self-cleavage kobs at 40 uM GlcN6P (glucosamine-6-phosphate [1])	self-cleavage kobs at 640 uM GlcN6P (glucosamine-6-phosphate [2])	self-cleavage kobs at 2500 uM GlcN6P (glucosamine-6-phosphate [3])	self-cleavage kobs at 10000 uM GlcN6P (glucosamine-6-phosphate [4])	self-cleavage kobs at 160 uM GlcN6P (glucosamine-6-phosphate [5])
A6C A33U	< 1e-05 s⁻¹	< 1e-05 s⁻¹	< 1e-05 s⁻¹	< 1e-05 s⁻¹	–
A12U A39G	0.00377 ± 0.00072 s⁻¹	0.0284 ± 0.013 s⁻¹	0.0119 ± 0.0036 s⁻¹	0.105 ± 0.045 s⁻¹	0.00677 ± 0.0016 s⁻¹
A12U U45A C58G C71G	< 1e-05 s⁻¹	–	4.36e-05 ± 1.4e-05 s⁻¹	3.15e-05 ± 1.5e-05 s⁻¹	–
C50G G62A C68A	6.73e-05 ± 1.6e-05 s⁻¹	–	–	9.9e-05 ± 2.3e-05 s⁻¹	–
G9A G13U A15G G37C A39C A53U C67G C68A	0.000469 ± 0.00015 s⁻¹	0.000121 ± 4.4e-05 s⁻¹	–	0.000282 ± 7.8e-05 s⁻¹	–
C16G C34G G44U C50U U69C	< 1e-05 s⁻¹	–	–	–	–
A12C G59U C68G	< 1e-05 s⁻¹	–	–	–	–
A48C A64U	< 1e-05 s⁻¹	< 1e-05 s⁻¹	–	–	< 1e-05 s⁻¹
A15G U56G	0.000419 ± 4.9e-05 s⁻¹	0.00325 ± 0.00045 s⁻¹	0.00559 ± 0.00073 s⁻¹	0.0296 ± 0.0053 s⁻¹	0.000989 ± 0.00014 s⁻¹
C11A A36U G62C C71G	< 1e-05 s⁻¹	–	–	< 1e-05 s⁻¹	< 1e-05 s⁻¹
C61A G62C G63U C71A	< 1e-05 s⁻¹	–	–	< 1e-05 s⁻¹	–
C16A C61U	< 1e-05 s⁻¹	< 1e-05 s⁻¹	< 1e-05 s⁻¹	< 1e-05 s⁻¹	< 1e-05 s⁻¹
G59A A64G U69G	< 1e-05 s⁻¹	–	–	–	–
A12C G38A G51A G59U C68U	< 1e-05 s⁻¹	–	–	< 1e-05 s⁻¹	–
A14G C16U G37A C67G C70G	< 1e-05 s⁻¹	–	< 1e-05 s⁻¹	–	–
U31G C70U	0.000479 ± 7.2e-05 s⁻¹	0.0023 ± 0.00038 s⁻¹	0.0117 ± 0.0029 s⁻¹	0.0305 ± 0.0058 s⁻¹	0.00104 ± 0.0002 s⁻¹
G32A C50G U56G C70U	0.000356 ± 7.7e-05 s⁻¹	–	–	0.00032 ± 7.2e-05 s⁻¹	–
C34G A42C C71U	< 1e-05 s⁻¹	–	< 1e-05 s⁻¹	–	–
C61U A64U	< 1e-05 s⁻¹	< 1e-05 s⁻¹	< 1e-05 s⁻¹	< 1e-05 s⁻¹	< 1e-05 s⁻¹
A48G U65A C68A	0.000357 ± 0.00011 s⁻¹	–	–	0.000113 ± 3.1e-05 s⁻¹	–
C8U G38U	< 1e-05 s⁻¹	–	< 1e-05 s⁻¹	–	< 1e-05 s⁻¹
C16G G37A G40A A48G	< 1e-05 s⁻¹	–	–	< 1e-05 s⁻¹	–
G37U G41U U65C	< 1e-05 s⁻¹	–	–	–	–
A39U U54A	0.000568 ± 6.6e-05 s⁻¹	0.00339 ± 0.00076 s⁻¹	–	–	–

Variant	self-cleavage kobs at 40 uM GlcN6P (glucosamine-6-phosphate [1])	self-cleavage kobs at 640 uM GlcN6P (glucosamine-6-phosphate [2])	self-cleavage kobs at 2500 uM GlcN6P (glucosamine-6-phosphate [3])	self-cleavage kobs at 10000 uM GlcN6P (glucosamine-6-phosphate [4])	self-cleavage kobs at 160 uM GlcN6P (glucosamine-6-phosphate [5])
C11A G37C G60A	< 1e-05 s⁻¹	–	–	–	–
C10A U45G G63U	< 1e-05 s⁻¹	–	–	< 1e-05 s⁻¹	–
U46A G51U	< 1e-05 s⁻¹	< 1e-05 s⁻¹	< 1e-05 s⁻¹	< 1e-05 s⁻¹	< 1e-05 s⁻¹
A12U G44A C67U	0.00174 ± 0.00037 s⁻¹	–	–	0.0153 ± 0.006 s⁻¹	–
C16G U31A	5.78e-05 ± 2.1e-05 s⁻¹	0.000204 ± 8.2e-05 s⁻¹	0.00117 ± 0.00048 s⁻¹	0.00174 ± 0.0006 s⁻¹	4.17e-05 ± 1.9e-05 s⁻¹
G9C U55G	< 1e-05 s⁻¹	–	–	< 1e-05 s⁻¹	–
C34U G40C	< 1e-05 s⁻¹	< 1e-05 s⁻¹	–	< 1e-05 s⁻¹	–
A14U A42G G44U G63U	< 1e-05 s⁻¹	–	< 1e-05 s⁻¹	–	–
U31C G38A U46G	< 1e-05 s⁻¹	–	–	–	–
G38A C50G C68U	7.89e-05 ± 2.3e-05 s⁻¹	8.33e-05 ± 3.1e-05 s⁻¹	0.000109 ± 2.4e-05 s⁻¹	4.82e-05 ± 1.5e-05 s⁻¹	–
C8G U65A	< 1e-05 s⁻¹	–	–	–	–
A33U G38U A42U U56C G63U	< 1e-05 s⁻¹	–	–	< 1e-05 s⁻¹	–
G51C C70A	< 1e-05 s⁻¹	< 1e-05 s⁻¹	–	–	–
G9A G32A	< 1e-05 s⁻¹	< 1e-05 s⁻¹	< 1e-05 s⁻¹	< 1e-05 s⁻¹	–
A12U C71A	0.000512 ± 5.5e-05 s⁻¹	0.00333 ± 0.00046 s⁻¹	0.0115 ± 0.0027 s⁻¹	0.0343 ± 0.0084 s⁻¹	0.0012 ± 0.00016 s⁻¹
G41U C50G	< 1e-05 s⁻¹	< 1e-05 s⁻¹	–	< 1e-05 s⁻¹	–
G43A U47G U54A	< 1e-05 s⁻¹	–	–	–	–
C34U A52G C68G	0.000541 ± 0.00018 s⁻¹	–	–	0.000197 ± 6e-05 s⁻¹	–
C8U A33C G44A C50G	< 1e-05 s⁻¹	< 1e-05 s⁻¹	< 1e-05 s⁻¹	–	–
A6U G13U U47A	< 1e-05 s⁻¹	–	–	–	–
C11U G29U C34U A53U U56A	< 1e-05 s⁻¹	–	< 1e-05 s⁻¹	–	–
G13U G38U A52G C68G U69G	0.000165 ± 5.9e-05 s⁻¹	–	–	8.14e-05 ± 2.1e-05 s⁻¹	–
A12U G29U	0.000958 ± 0.00022 s⁻¹	–	–	0.019 ± 0.0045 s⁻¹	–
C11A C70U C71G	4.85e-05 ± 1.9e-05 s⁻¹	–	–	3.22e-05 ± 1.6e-05 s⁻¹	–

Variant	self-cleavage kobs at 40 uM GlcN6P (glucosamine-6-phosphate [1])	self-cleavage kobs at 640 uM GlcN6P (glucosamine-6-phosphate [2])	self-cleavage kobs at 2500 uM GlcN6P (glucosamine-6-phosphate [3])	self-cleavage kobs at 10000 uM GlcN6P (glucosamine-6-phosphate [4])	self-cleavage kobs at 160 uM GlcN6P (glucosamine-6-phosphate [5])
C8U U47A	< 1e-05 s⁻¹	< 1e-05 s⁻¹	–	< 1e-05 s⁻¹	< 1e-05 s⁻¹
A6U C11A A53U	< 1e-05 s⁻¹	< 1e-05 s⁻¹	–	< 1e-05 s⁻¹	–
G35U G59A	< 1e-05 s⁻¹	< 1e-05 s⁻¹	–	–	–
C10U G60C	< 1e-05 s⁻¹	< 1e-05 s⁻¹	< 1e-05 s⁻¹	< 1e-05 s⁻¹	< 1e-05 s⁻¹
A6G A14U G40C C67G	< 1e-05 s⁻¹	< 1e-05 s⁻¹	–	–	–
G9A C50G	0.000112 ± 1.8e-05 s⁻¹	0.00113 ± 0.00048 s⁻¹	–	9.95e-05 ± 1.1e-05 s⁻¹	0.000137 ± 3.9e-05 s⁻¹
A36G G44C A64C C67U	< 1e-05 s⁻¹	–	–	–	–
A33C G44A C71A	< 1e-05 s⁻¹	–	–	< 1e-05 s⁻¹	–
U31A U49C	< 1e-05 s⁻¹	< 1e-05 s⁻¹	< 1e-05 s⁻¹	< 1e-05 s⁻¹	< 1e-05 s⁻¹
C11A C50G G62U	0.000115 ± 2.8e-05 s⁻¹	–	–	0.000116 ± 2.6e-05 s⁻¹	–
A12U A15C U55A	0.000587 ± 0.00012 s⁻¹	–	–	0.012 ± 0.0027 s⁻¹	–
G7U U46G	< 1e-05 s⁻¹	< 1e-05 s⁻¹	< 1e-05 s⁻¹	< 1e-05 s⁻¹	< 1e-05 s⁻¹
A15G G38A A42G	< 1e-05 s⁻¹	< 1e-05 s⁻¹	–	–	< 1e-05 s⁻¹
G9C A15U	< 1e-05 s⁻¹	< 1e-05 s⁻¹	< 1e-05 s⁻¹	< 1e-05 s⁻¹	< 1e-05 s⁻¹
G51U A64G	< 1e-05 s⁻¹	–	< 1e-05 s⁻¹	–	< 1e-05 s⁻¹
A36U C50U A52G C70G	0.000113 ± 3.1e-05 s⁻¹	0.000329 ± 7.9e-05 s⁻¹	0.000173 ± 8.2e-05 s⁻¹	–	–
G37U G40U	< 1e-05 s⁻¹	< 1e-05 s⁻¹	< 1e-05 s⁻¹	< 1e-05 s⁻¹	< 1e-05 s⁻¹
C11U A12U A64U	< 1e-05 s⁻¹	–	–	–	–
G60U U69C	< 1e-05 s⁻¹	< 1e-05 s⁻¹	–	< 1e-05 s⁻¹	< 1e-05 s⁻¹
G41C C58G	< 1e-05 s⁻¹	< 1e-05 s⁻¹	–	< 1e-05 s⁻¹	< 1e-05 s⁻¹
C16G U31C G37C A53G	< 1e-05 s⁻¹	–	–	–	–
A12C G62U	< 1e-05 s⁻¹	< 1e-05 s⁻¹	< 1e-05 s⁻¹	< 1e-05 s⁻¹	< 1e-05 s⁻¹
